How the values were obtained:
[1] = biological target: recombinant gp120 from the laboratory-adapted strain HIV-1LAI (HIV-1 LAI) (UniProt P03377); assay: modified ELISA; gp120 captured on plate, CD4-IgG2 titrated, 1 h at 37 C, 50% of maximal binding
[2] = biological target: recombinant gp120 from the primary isolate HIV-1JR-FL (HIV-1 JR-FL) (UniProt P20871); assay: as above
[3] = biological target: HIV-1IIIB gp120/gp41 stably expressed on CHO cells (HIV-1 IIIB); assay: cell-based or functional assay

Row | Substance | EC50 [1] [nM] | EC50 [2] [nM] | IC50 (nM), syncytium inhibition [3] [nM] | IC50 (µg/ml), syncytium inhibition [3] [µg/mL] | Relative Potency (mass), relative to sCD4 [3] [fold] | Relative Potency (molarity), relative to sCD4 [3] [fold]
1 | CD4-IgG2 chimeric heterotetramer (Fc fusion) | 1.25 | 0.64 | 9 | 1.81 | 5.1 | 22.2
2 | CD4-gamma2 chimeric heavy chain homodimer (Fc fusion) | – | – | 40 | 4.03 | – | –
